The results in this text go back to patent US20250243262A1 (AstraZeneca / MedImmune, published 2025).

The target of this experiment is PcrV on live P. aeruginosa (type III secretion system of the infecting bacteria) (Pseudomonas aeruginosa). As to the kind of experiment: cell-based or functional assay.

B1: V2L2 anti-PcrV monoclonal antibody (antibody, IgG1, V domains shown)
VH: EMQLLESGGGLVQPGGSLRLSCAASGFTFSSYAMNWVRQAPGEGLEWVSAITISGITAYYTDSVKGRFTISRDNSKNTLYLQMNSLRAGDTAVYYCAKEEFLPGTHYYYGMDVWGQGTTVTVSS
VL: AIQMTQSPSSLSASVGDRVTITCRASQGIRNDLGWYQQKPGKAPKLVIYSASTLQSGVPSRFSGSGSGTDFTLSISSLQPDDFATYYCLQDYNYPWTFGQGTKVEIK
As for B1, the “inhibition of cytotoxicity, IC50 against that of mAb166” value was 28 fold; the “percent inhibition of cytotoxicity (lysis of A549 cells by P. aeruginosa 6077, LDH release), IC50” value was 0.1 µg/mL; the “prevention of RBC lysis, IC50 against that of mAb166” value turned out to be 10 fold; the “prevention of lysis of rabbit RBCs by P. aeruginosa 6077, IC50” value came out at 0.37 µg/mL.
